The values that follow come from US10597674B2, “HPPD variants and methods of use” (BASF Agricultural Solutions Seed, US LLC, priority 2015, dated 2020).

Substitutions are numbered along the chain they refer to. Names may count otherwise.

B1: 97 (protein)
chain: MADLYENPMGLMGFEFIEFASPTPGTLEPIFEIMGFTKVATHRSKNVHLYRQGEINLILNNEPNSIASYFAAEHGPSVCGMAFRVKDSQKAYNRALELGAQPIHIDTGPMELNLPAIKGIGGAPLYLIDRFGEGSSIYDIDFVYLEGVERNPVGAGLKVIDHLTHNVYRGRMVYWANFYEKLFNFREARYFDIKGEYTGLTSKAMSAPDGMIRIPLNEESSKGAGQIEEFLMQFNGEGIQHVAFLTDDLVKTWDALKKIGMRFMTAPGDRYYEMLEGRLPDHGEPVDQLQARGILLDGSSVEGDKRLLLQIFSETLMGPVFFEFIQRKGHSGFGPDSFKVLFESKERDQVRRGVLTAD
modifications: mutant HPPD polypeptide
B2: 102 (protein)
chain: B1 chain with M264L, G268R, R270E, T315R, H330D, S331D, D336H, S344Q, K345M
modifications: mutant HPPD polypeptide
B3: 100 (protein)
chain: B1 chain with M264L, R270E, S331D, S344Q, K345M
modifications: mutant HPPD polypeptide
B4: 99 (protein)
chain: B1 chain with R270E, H330D, S331D, F338V, V340R, K345V
modifications: mutant HPPD polypeptide
B5: 106 (protein)
chain: B1 chain with M264L, R270E, S331P, S344Q, K345M
modifications: mutant HPPD polypeptide
B6: SEQ ID NO: 30: mutant HPPD polypeptide: P268S T270S E335P G336H N337S A340V I345K (protein)
chain: B1 chain with G268S, R270S, H330D, S331D, D336H
modifications: mutant HPPD polypeptide
notes: mutant HPPD polypeptide: P268S T270S E335P G336H N337S A340V I345K
B7: SEQ ID NO: 21: mutant HPPD polypeptide: E335P G336H N337S (protein)
chain: B1 chain with G268P, R270T, H330D, S331D, D336H, V340A, K345I
modifications: mutant HPPD polypeptide
notes: mutant HPPD polypeptide: E335P G336H N337S
B8: SEQ ID NO: 45: mutant HPPD polypeptide: P268G T270E T315R E335P G336D N337S A340V I345V (protein)
chain: B1 chain with R270E, T315R, H330D, S331D, K345V
modifications: mutant HPPD polypeptide
notes: mutant HPPD polypeptide: P268G T270E T315R E335P G336D N337S A340V I345V
B9: SEQ ID NO: 9: mutant HPPD polypeptide: E335P G336D N337S I345V (protein)
chain: B1 chain with G268P, R270T, H330D, S331D, V340A, K345V
modifications: mutant HPPD polypeptide
notes: mutant HPPD polypeptide: E335P G336D N337S I345V

For the first assay, the system named is E. coli cells expressing an HPPD polypeptide. The experiment in a line: Brown color bioassay in liquid culture, residual brown color formation (BCF), OD440 after 96 hours. Type of assay: cell-based. Particulars: brown color formation in absence of Cmpd. 1, culture supernatant after 96 hours, 5 mM HPP. The method, then:
In an additional experiment, mutant HPPD polypeptides were analyzed using the principle of a colorimetric brown color assay (as, for example, described in U.S. Pat. No. 6,768,044). Bacterial cells expressing the HPPD polypeptides according to this invention were assayed in 96 well plate format (Nunc® 96 DeepWell™ plate, Sigma-Aldrich, St. Louis, USA) for HPPD polypeptides with improved HPPD inhibitor herbicide tolerance.
E. coli cells were grown in liquid LB medium (Carl Roth GmbH+Co. KG, Karlsruhe, Germany) containing the selection agent for the expression vector pSE420(RI)NX (WO2014/043435) and 5 mM para-hydroxyphenylpyruvate (HPP; Sigma-Aldrich, St. Louis, USA), in the presence of absence of the HPPD inhibitor herbicide e.g. Cmpd. 1 (1000 μM). An overnight culture of E. coli culture expressing one of the respective HPPD polypeptides according to this invention were adjusted to an OD600 of 0.3-0.5 in a final volume of 500 μL and incubated at 30 degree Celsius. Residual brown color formation was determined by measuring the brown color formation (BCF) in the presence and absence of Cmpd. […] Therefore, after 96 hours the culture was centrifuged and the supernatant of the culture was used to measure the optical density of the soluble brown pigment formation at 440 nm (OD440 nm).
In the case of B1, the “Control BCF OD440nm” value was 1.54.
Consider B2, for which the “Control BCF OD440nm” value was found to be 2.47.
In the case of B3, the “Control BCF OD440nm” value was 2.48.
The same measure, in the same setting: next, B4: 1.52; B5: 1.50.

Staying with this assay, now noted: brown color formation with Cmpd. 1 (1000 μM) relative to without, after 96 hours.
Consider B1, for which the “Residual BCF OD440nm [%]” value is reported as 49%.
As to B2, the “Residual BCF OD440nm [%]” value amounted to 26%.
The same measure, in the same setting: then B3, with 33%; and B4, with 87%.
The same measure, in the same setting: next, B5: 73%.

In a further assay the test system is transgenic soybean T0 events. The assay is described as follows: Additional greenhouse trials of T0 soybean events, leaf damage score 0-100 as percentiles. Type of assay: in vivo. The note with it: Cmpd. 1 300 g AI/ha, five days; 75th minus 25th percentile. An excerpt: In additional greenhouse trials, 21 to 94 independent T0 soybean events per construct containing an exemplary mutant HPPD polypeptide were sprayed with the HPPD inhibitor herbicide Cmpd. […] Five days after the application, the leaf damaged area due to the HPPD inhibitor herbicide is scored in a scale from 0 (no damage) to 100 (complete bleaching). Under those conditions, the wild-type plants were completely bleached and their damage scores were in the 95-100 range.
Table 9 presents the distribution of the HPPD inhibitor herbicide damage score data as percentile for exemplary mutant HPPD inhibitor herbicide tolerant polypeptides (SEQ ID NOs). The percentiles normalize ranks of the damage score from an individual plant in a population. […] The median is the 50th percentile. Half the values had higher damage scores; half had lower damage scores. […] The difference between the 75th and 25th percentile is called the interquartile range and a marker to quantify scattering in the population. All constructs had only one single cassette insertion in the soybean genome.
In Table 9, the constructs were ranked based on injury scores according to the 75th percentile, from smallest to highest score. All exemplary HPPD polypeptide variants are better in all percentile analyses than the prior art mutant HPPD polypeptide (WO2014/043435) corresponding to SEQ ID NO:2 in this invention. The scoring of the prior art mutant HPPD polypeptide (WO2014/043435) corresponding to SEQ ID NO:2 in this invention is listed in the bottom row of Table 9.
For B6, the “leaf damage score, Interquartile range” value is given as 5.0.
Still for that read-out and setting: then B7, with 15.0; and B8, with 21.3.
Still for that read-out and setting: next, B9: 5.0.

The assay is the same for the next values; noted with them: Cmpd. 1 300 g AI/ha, five days; scale 0 (no damage) to 100 (complete bleaching).
B6: the “leaf damage score, 25th percentile” value is 10.0.
Still for that read-out and setting: then B7, with 10.0; and B8, with 5.0.
Still for that read-out and setting: next, B9: 10.0.

The assay is the same for the next values; noted with them: Cmpd. 1 300 g AI/ha, five days; scale 0-100.
For B6, the “leaf damage score, 75th percentile” value is 15.0; the “leaf damage score, 90th percentile” value worked out at 25.0; the “leaf damage score, Median” value turned out to be 15.0.
B7: the “leaf damage score, 75th percentile” value came to 25.0; the “leaf damage score, 90th percentile” value was 35.0; the “leaf damage score, Median” value was 15.0.
The corresponding values for B8 are 26.3, 67.5 and 15.0.
Taken in the same sequence, the figures for B9 were 15.0, 19.0 and 10.0.
